Patent publication US20110165175A1 (AFFIMED THERAPEUTICS, published 2011)
“And” between values parts separate entries of the source, which are not always exact repeats. Equal entries are not always repeated.

Legend:
[1] = biological target: platelet integrin receptor GPIIb/IIIa (alpha IIb/beta 3), activated state, on ADP-activated human platelets (human) (UniProt P08514); assay: flow cytometry, inhibition of fibrinogen binding to ADP-activated platelets in whole blood
[2] = biological target: T1, platelet integrin receptor GPIIb/IIIa (alpha IIb/beta 3), activated state, on ADP-activated human platelets (human, UniProt P08514 32-1039; P05106 27-788); assay: FACS, inhibition of fibrinogen binding to activated human platelets
T1 construct: whole, on cells; The assays were on whole platelets

[3] = biological target: platelet integrin receptor GPIIb/IIIa (alpha IIb/beta 3), non-activated state, on non-activated human platelets (human) (UniProt P08514); assay: flow cytometry, non-activated platelets in diluted human whole blood, scFv at 0.1 µg/mL, background of secondary reagent subtracted
[4] = biological target: platelet integrin receptor GPIIb/IIIa (alpha IIb/beta 3), activated state, on ADP-activated human platelets (human) (UniProt P08514); assay: flow cytometry, ADP-activated platelets in diluted human whole blood, scFv at 3.9×10^-2 µg/mL, background of secondary reagent subtracted
[5] = biological target: platelet integrin receptor GPIIb/IIIa (alpha IIb/beta 3), activated state, on ADP-activated human platelets (human) (UniProt P08514); assay: flow cytometry, ratio against non-activated platelets at the same scFv concentration (FIG. 23 B)
[6] = biological target: platelet integrin receptor GPIIb/IIIa (alpha IIb/beta 3), activated state, on ADP-activated human platelets (human) (UniProt P08514); assay: flow cytometry, ADP-activated platelets in diluted human whole blood, scFv at 4.9×10^-3 µg/mL, background of secondary reagent subtracted
[7] = biological target: platelet integrin receptor GPIIb/IIIa (alpha IIb/beta 3), non-activated state, on non-activated human platelets (human) (UniProt P08514); assay: flow cytometry, non-activated platelets in diluted human whole blood, scFv at 9.8×10^-3 µg/mL, background of secondary reagent subtracted
[8] = biological target: platelet integrin receptor GPIIb/IIIa (alpha IIb/beta 3), activated state, on ADP-activated human platelets (human) (UniProt P08514); assay: flow cytometry, ADP-activated platelets in diluted human whole blood, scFv at 2.0×10^-3 µg/mL as printed, background of secondary reagent subtracted
[9] = biological target: platelet integrin receptor GPIIb/IIIa (alpha IIb/beta 3), activated state, on ADP-activated human platelets (human) (UniProt P08514); assay: flow cytometry, ADP-activated platelets in diluted human whole blood, scFv at 9.8×10^-3 µg/mL, background of secondary reagent subtracted
[10] = biological target: platelet integrin receptor GPIIb/IIIa (alpha IIb/beta 3), non-activated state, on non-activated human platelets (human) (UniProt P08514); assay: flow cytometry, non-activated platelets in diluted human whole blood, scFv at 2.0×10^-3 µg/mL as printed, background of secondary reagent subtracted
[11] = biological target: platelet integrin receptor GPIIb/IIIa (alpha IIb/beta 3), activated state, on ADP-activated human platelets (human) (UniProt P08514); assay: flow cytometry, ADP-activated platelets in diluted human whole blood, scFv at 0.1 µg/mL, background of secondary reagent subtracted
[12] = biological target: platelet integrin receptor GPIIb/IIIa (alpha IIb/beta 3), non-activated state, on non-activated human platelets (human) (UniProt P08514); assay: flow cytometry, non-activated platelets in diluted human whole blood, scFv at 4.9×10^-3 µg/mL, background of secondary reagent subtracted
[13] = biological target: platelet integrin receptor GPIIb/IIIa (alpha IIb/beta 3), activated state, on ADP-activated human platelets (human) (UniProt P08514); assay: flow cytometry, inhibition of fibrinogen binding to ADP-activated platelets in whole blood, 4-parameter logistic fit
[14] = biological target: platelet integrin receptor GPIIb/IIIa (alpha IIb/beta 3), non-activated state, on non-activated human platelets (human) (UniProt P08514); assay: flow cytometry, non-activated platelets in diluted human whole blood, scFv at 3.9×10^-2 µg/mL, background of secondary reagent subtracted

B1: ReoPro (abciximab, Centocor/Eli Lily) (Fab, INN chains, looked up, V domains shown)
VH: EVQLQQSGTVLARPGASVKMSCEASGYTFTNYWMHWVKQRPGQGLEWIGAIYPGNSDTSYIQKFKGKAKLTAVTSTTSVYMELSSLTNEDSAVYYCTLYDGYYVFAYWGQGTLVTVSA
VL: EIVLTQSPVTLSVTPGDSVSLSCRASRDISNNLHWFQQTSHESPRLLIKYASQSMSGIPSRFSGSGSGTDFTLSINSVETEDFGMYFCQQTNSWPYTFGGGTKLEIK
modifications: Fab
[1]
  EC50: 0.16 µg/mL

B2: MB9 scFv (scFv)
scFv: MAEVQLVQSGAEVNKPGASVKVSCKASGYTFTGYYMHWVRQAPGQGLEWMGWINPNSGGTNYAQKFQGWVTMTRDTSISTAYMELSRLRSDDTAVYYCARGRALYNRNDRSPNWFDPWGQGTLVTVSSGSASAPTLKLEEGEFSEARVQAVLTQPPSVSVAPGQTARITCGGNNIGSKSVQWYQQKPGQAPVLVVYDDSDRPSGIPERFSGSNSGNMATLTISRVEAGDEADYYCQVWDSSSDHVVFGGGTKLTVLGQPKAAPSVTLFPPSAAAGSHHHHHH
notes: Human scFv from the natural IgM phage library, 31 kDa, detected through a His tag; also called clone MB9; MA2
[2]
  IC50: 1.1 µg/mL and 35 nM

B3: human anti-gpIIb/IIIa single chain antibody (scFv) SCE5 (scFv, V domains shown, not shown: small tags and cut ends)
VH: QVQLQESGGGLVQPGGSLRLSCAASGFMFSRYAMSWVRQAPGKGPEWVSGISGSGGSTYYADSVKGRFTVSRDNSKNTLYLQMNSLRAEDTAVYYCARGATYTSRSDVPDQTSFDYWGQGTLVTVSS
VL: SSELTQDPAVSVALGQTVRITCQGDSLRNFYASWYQQKPGQAPTLVIYGLSKRPSGIPDRFSASSSGNTASLTITGAQAEDEADYYCLLYYGGGQQGVFGGGTKLTVL
modifications: linker and His tag
[3]
  fluorescence signal value: 0.16
[4]
  fluorescence signal value: 2.84
[5]
  fluorescence on activated platelets divided by fluorescence on non-activated platelets: 10 times
[1]
  concentration at which the inhibitory effect starts: 0.1 to 0.2 µg/mL
  concentration of maximal inhibitory effect: 10 µg/mL
[6]
  fluorescence signal value: 0.265
[7]
  fluorescence signal value: 0.015
[8]
  fluorescence signal value: 1.33
[9]
  fluorescence signal value: 0.612
[10]
  fluorescence signal value: 0.027
[11]
  fluorescence signal value: 4.15
[12]
  fluorescence signal value: 0.013
[13]
  EC50: 0.94 µg/mL
[14]
  fluorescence signal value: 0.05
